Data taken from patent EP2488198B1.

Molecular target: constitutively activated LFA-1 expressed at a high level on a Jurkat T-lymphocyte cell line (human) (UniProt P20701)
Assay: cell-based or functional assay

Chain of constitutively activated LFA-1 expressed at a high level on a Jurkat T-lymphocyte cell line (human) (P20701 26-1170, chain 1 of 2): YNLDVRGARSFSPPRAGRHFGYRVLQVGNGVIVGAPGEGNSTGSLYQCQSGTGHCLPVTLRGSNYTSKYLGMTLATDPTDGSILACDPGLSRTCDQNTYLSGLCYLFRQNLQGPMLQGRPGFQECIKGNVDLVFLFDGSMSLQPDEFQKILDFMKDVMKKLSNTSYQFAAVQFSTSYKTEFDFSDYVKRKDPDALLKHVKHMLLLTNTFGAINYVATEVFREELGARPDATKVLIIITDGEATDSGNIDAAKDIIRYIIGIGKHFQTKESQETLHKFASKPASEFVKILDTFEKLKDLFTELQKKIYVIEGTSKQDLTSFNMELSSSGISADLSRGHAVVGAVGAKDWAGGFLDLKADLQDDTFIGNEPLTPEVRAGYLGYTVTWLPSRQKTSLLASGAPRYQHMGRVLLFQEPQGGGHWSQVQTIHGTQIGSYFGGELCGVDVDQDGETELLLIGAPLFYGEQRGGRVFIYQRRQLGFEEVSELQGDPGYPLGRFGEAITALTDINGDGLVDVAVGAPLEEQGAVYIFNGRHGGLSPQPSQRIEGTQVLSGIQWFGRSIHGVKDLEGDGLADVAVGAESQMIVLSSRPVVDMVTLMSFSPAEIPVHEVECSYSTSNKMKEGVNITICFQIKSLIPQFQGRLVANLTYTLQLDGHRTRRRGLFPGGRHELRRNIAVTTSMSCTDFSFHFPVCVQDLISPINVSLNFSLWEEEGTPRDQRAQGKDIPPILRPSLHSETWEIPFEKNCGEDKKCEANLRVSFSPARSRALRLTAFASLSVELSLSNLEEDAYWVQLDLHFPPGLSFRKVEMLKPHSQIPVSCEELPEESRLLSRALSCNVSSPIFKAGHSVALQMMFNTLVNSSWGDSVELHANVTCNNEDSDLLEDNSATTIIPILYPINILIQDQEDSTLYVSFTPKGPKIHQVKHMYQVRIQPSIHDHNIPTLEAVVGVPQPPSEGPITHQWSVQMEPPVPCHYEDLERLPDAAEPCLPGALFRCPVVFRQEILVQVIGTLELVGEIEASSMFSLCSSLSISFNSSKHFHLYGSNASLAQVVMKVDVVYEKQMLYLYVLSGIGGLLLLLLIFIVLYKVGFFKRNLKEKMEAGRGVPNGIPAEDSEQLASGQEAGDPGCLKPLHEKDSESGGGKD
Chain of constitutively activated LFA-1 expressed at a high level on a Jurkat T-lymphocyte cell line (human) (P05107 23-769, chain 2 of 2, further chain): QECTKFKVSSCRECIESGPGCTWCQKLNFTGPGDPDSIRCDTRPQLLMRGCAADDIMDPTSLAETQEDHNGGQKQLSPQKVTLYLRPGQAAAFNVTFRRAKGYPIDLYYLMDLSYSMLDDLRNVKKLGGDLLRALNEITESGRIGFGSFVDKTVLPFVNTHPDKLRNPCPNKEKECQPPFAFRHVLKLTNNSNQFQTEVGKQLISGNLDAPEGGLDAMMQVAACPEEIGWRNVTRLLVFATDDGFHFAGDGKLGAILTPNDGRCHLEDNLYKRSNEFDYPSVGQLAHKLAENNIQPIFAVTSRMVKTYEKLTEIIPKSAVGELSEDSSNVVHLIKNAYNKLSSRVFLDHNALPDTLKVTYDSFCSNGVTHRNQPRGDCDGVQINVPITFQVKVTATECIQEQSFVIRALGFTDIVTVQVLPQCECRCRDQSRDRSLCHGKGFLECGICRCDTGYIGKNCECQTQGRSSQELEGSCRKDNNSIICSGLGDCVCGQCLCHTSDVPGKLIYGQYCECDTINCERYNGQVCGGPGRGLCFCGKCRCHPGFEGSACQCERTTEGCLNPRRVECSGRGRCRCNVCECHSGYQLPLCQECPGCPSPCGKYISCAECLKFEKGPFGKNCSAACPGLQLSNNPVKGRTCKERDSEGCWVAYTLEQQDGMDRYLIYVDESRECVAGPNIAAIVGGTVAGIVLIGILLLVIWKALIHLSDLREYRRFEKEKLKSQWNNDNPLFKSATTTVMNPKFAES

**Q.** How did the sensitivity to LtxA-mediated toxicity turn out when “Leukotoxin (LtxA) of Aggregatibacter actinomycetemcomitans strain NJ4500 (from UniProt P16462 1-1055)” was run?
**A.** 10 times
